1 molecule from CN101066999A can be followed below.

Substrate in experiment [1]: 人OPN (Osteopontin, R&D Systems) (human) (UniProt P10451)
In words: sandwich ELISA: mAb coated at 1.0 μg/ml, OPN standard, rabbit anti-human OPN polyclonal serum as detector.

Substrate in experiment [2]: 人OPN (Osteopontin, R&D Systems) (human) (UniProt P10451)
In words: sandwich ELISA: mAbs coated at 1.0 μg/ml; OPN at 6.25-100 pg/mL for this mAb and 6.25-100 ng/mL for the commercial mAb.

B1: 重组抗OPN单克隆抗体 7G2 (antibody, V domains shown)
VL: DILMTQTPLSLPVSLGDQASISCRSSQSLVHSNGNTYLHWYLQKPGQSPKLLISKVSNRFSGVPDRFSGSGSGTDFTLKISRVEAEDLGVYFCSQSTHVPWTFGGGTKLEIKR
VH: MAQVQLEQSGPELVKPGASVKMSCKSSGYTFTTYVMHVKQKPGQGLEWIGYINPYNDGSKYNEKFKGKATLTSDKSSNTAYMELSSLTSEDSAVYYSDSHYGGSPAYWGQGTLVTVSA
Take B1: in experiment [1], the 灵敏度 (detection sensitivity for OPN) is 6.52 pg/mL. Besides, the fold higher sensitivity for human OPN than the commercial mAb MAB14331 in experiment [2] stood at 1000 fold.
